According to patent publication US20160272693A1 (ZEALAND PHARMA A S, published 2016):
*1 amine or outer side, *2 acyl side, *3 side chain or, on linkers, in order; H or OH if unused. Bridges are numbered along the chain shown (N, C = ends). [ ]: non-standard residue; d: D form. The star is where a group is joined. C20 diacid = O=C(O)CCCCCCCCCCCCCCCCCCC(=O)*; γGlu = O=C(O)[C@H](CCC(=O)[*:2])N[*:1]; Hyp = O=C(O)[C@@H]1C[C@@H](O)CN1; NMeI = CC[C@H](C)[C@H](NC)C(=O)O; Sar = CNCC(=O)O

T1: human amylin receptor 3 (hAMYR3), hCTR2 co-expressed with human receptor activity modifying protein 3 (hRAMP3) (human, UniProt P30988 25-474; O60896 24-148)
T1 sequence (looked up) 1: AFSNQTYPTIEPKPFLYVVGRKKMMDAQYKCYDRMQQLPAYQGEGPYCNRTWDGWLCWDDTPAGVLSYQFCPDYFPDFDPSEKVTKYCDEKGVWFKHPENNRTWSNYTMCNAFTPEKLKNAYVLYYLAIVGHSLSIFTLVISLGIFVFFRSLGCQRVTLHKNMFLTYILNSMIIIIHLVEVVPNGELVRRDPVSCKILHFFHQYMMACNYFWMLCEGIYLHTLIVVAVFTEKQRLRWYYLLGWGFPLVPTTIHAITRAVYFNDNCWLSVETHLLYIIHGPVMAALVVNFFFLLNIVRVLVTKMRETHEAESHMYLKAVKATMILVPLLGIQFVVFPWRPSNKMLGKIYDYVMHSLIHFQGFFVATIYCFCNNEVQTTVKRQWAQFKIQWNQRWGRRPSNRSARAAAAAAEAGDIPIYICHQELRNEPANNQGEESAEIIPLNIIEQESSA
T1 sequence (looked up) 2: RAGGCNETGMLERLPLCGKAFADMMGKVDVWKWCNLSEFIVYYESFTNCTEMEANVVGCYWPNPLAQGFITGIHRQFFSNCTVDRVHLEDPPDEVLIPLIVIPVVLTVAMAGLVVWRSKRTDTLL

B1: [19CD]-isoGlu-R-C( )-GTAT-C( )-ATERLAHFLQRSSF-Gly(Me)-A-Ile(Me)-LSSTEVGSST-Hyp-NH2 (Compd. 28) (peptide)
peptide: {C20 diacid}-[γGlu]RCGTATCATERLAHFLQRSSF[Sar]A[NMeI]LSSTEVGSST[Hyp]-NH2
modifications: disulfide 3-8
SMILES: CC[C@H](C)[C@@H](C(=O)N[C@@H](CC(C)C)C(=O)N[C@@H](CO)C(=O)N[C@@H](CO)C(=O)N[C@H](C(=O)N[C@@H](CCC(=O)O)C(=O)N[C@H](C(=O)NCC(=O)N[C@@H](CO)C(=O)N[C@@H](CO)C(=O)N[C@H](C(=O)N1C[C@H](O)C[C@H]1C(N)=O)[C@@H](C)O)C(C)C)[C@@H](C)O)N(C)C(=O)[C@H](C)NC(=O)CN(C)C(=O)[C@H](Cc1ccccc1)NC(=O)[C@H](CO)NC(=O)[C@H](CO)NC(=O)[C@H](CCCNC(=N)N)NC(=O)[C@H](CCC(N)=O)NC(=O)[C@H](CC(C)C)NC(=O)[C@H](Cc1ccccc1)NC(=O)[C@H](Cc1c[nH]cn1)NC(=O)[C@H](C)NC(=O)[C@H](CC(C)C)NC(=O)[C@H](CCCNC(=N)N)NC(=O)[C@H](CCC(=O)O)NC(=O)[C@@H](NC(=O)[C@H](C)NC(=O)[C@@H]1CSSC[C@H](NC(=O)[C@H](CCCNC(=N)N)NC(=O)CC[C@H](NC(=O)CCCCCCCCCCCCCCCCCCC(=O)O)C(=O)O)C(=O)NCC(=O)N[C@@H]([C@@H](C)O)C(=O)N[C@@H](C)C(=O)N[C@@H]([C@@H](C)O)C(=O)N1)[C@@H](C)O
B2: [19CD]-isoGlu-R-C( )-GTAT-C( )-ATERLAHFLNRSSF-Gly(Me)-A-Ile(Me)-LSSTEVGSFT-Hyp-NH2 (Compd. 33) (peptide)
peptide: {C20 diacid}-[γGlu]RCGTATCATERLAHFLNRSSF[Sar]A[NMeI]LSSTEVGSFT[Hyp]-NH2
modifications: disulfide 3-8
SMILES: CC[C@H](C)[C@@H](C(=O)N[C@@H](CC(C)C)C(=O)N[C@@H](CO)C(=O)N[C@@H](CO)C(=O)N[C@H](C(=O)N[C@@H](CCC(=O)O)C(=O)N[C@H](C(=O)NCC(=O)N[C@@H](CO)C(=O)N[C@@H](Cc1ccccc1)C(=O)N[C@H](C(=O)N1C[C@H](O)C[C@H]1C(N)=O)[C@@H](C)O)C(C)C)[C@@H](C)O)N(C)C(=O)[C@H](C)NC(=O)CN(C)C(=O)[C@H](Cc1ccccc1)NC(=O)[C@H](CO)NC(=O)[C@H](CO)NC(=O)[C@H](CCCNC(=N)N)NC(=O)[C@H](CC(N)=O)NC(=O)[C@H](CC(C)C)NC(=O)[C@H](Cc1ccccc1)NC(=O)[C@H](Cc1c[nH]cn1)NC(=O)[C@H](C)NC(=O)[C@H](CC(C)C)NC(=O)[C@H](CCCNC(=N)N)NC(=O)[C@H](CCC(=O)O)NC(=O)[C@@H](NC(=O)[C@H](C)NC(=O)[C@@H]1CSSC[C@H](NC(=O)[C@H](CCCNC(=N)N)NC(=O)CC[C@H](NC(=O)CCCCCCCCCCCCCCCCCCC(=O)O)C(=O)O)C(=O)NCC(=O)N[C@@H]([C@@H](C)O)C(=O)N[C@@H](C)C(=O)N[C@@H]([C@@H](C)O)C(=O)N1)[C@@H](C)O
B3: [19CD]-isoGlu-R-C( )-GTAT-C( )-ATERLAHFLQRSSF-Gly(Me)-A-Ile(Me)-LSSTEVGSFT-Hyp-NH2 (Compd. 32) (peptide)
peptide: {C20 diacid}-[γGlu]RCGTATCATERLAHFLQRSSF[Sar]A[NMeI]LSSTEVGSFT[Hyp]-NH2
modifications: disulfide 3-8
SMILES: CC[C@H](C)[C@@H](C(=O)N[C@@H](CC(C)C)C(=O)N[C@@H](CO)C(=O)N[C@@H](CO)C(=O)N[C@H](C(=O)N[C@@H](CCC(=O)O)C(=O)N[C@H](C(=O)NCC(=O)N[C@@H](CO)C(=O)N[C@@H](Cc1ccccc1)C(=O)N[C@H](C(=O)N1C[C@H](O)C[C@H]1C(N)=O)[C@@H](C)O)C(C)C)[C@@H](C)O)N(C)C(=O)[C@H](C)NC(=O)CN(C)C(=O)[C@H](Cc1ccccc1)NC(=O)[C@H](CO)NC(=O)[C@H](CO)NC(=O)[C@H](CCCNC(=N)N)NC(=O)[C@H](CCC(N)=O)NC(=O)[C@H](CC(C)C)NC(=O)[C@H](Cc1ccccc1)NC(=O)[C@H](Cc1c[nH]cn1)NC(=O)[C@H](C)NC(=O)[C@H](CC(C)C)NC(=O)[C@H](CCCNC(=N)N)NC(=O)[C@H](CCC(=O)O)NC(=O)[C@@H](NC(=O)[C@H](C)NC(=O)[C@@H]1CSSC[C@H](NC(=O)[C@H](CCCNC(=N)N)NC(=O)CC[C@H](NC(=O)CCCCCCCCCCCCCCCCCCC(=O)O)C(=O)O)C(=O)NCC(=O)N[C@@H]([C@@H](C)O)C(=O)N[C@@H](C)C(=O)N[C@@H]([C@@H](C)O)C(=O)N1)[C@@H](C)O
B4: [19CD]-isoGlu-R-C( )-GTAT-C( )-ATERLAHFLNRSSF-Gly(Me)-A-Ile(Me)-LSSTEVGSST-Hyp-NH2 (Compd. 29) (peptide)
peptide: {C20 diacid}-[γGlu]RCGTATCATERLAHFLNRSSF[Sar]A[NMeI]LSSTEVGSST[Hyp]-NH2
modifications: disulfide 3-8
SMILES: CC[C@H](C)[C@@H](C(=O)N[C@@H](CC(C)C)C(=O)N[C@@H](CO)C(=O)N[C@@H](CO)C(=O)N[C@H](C(=O)N[C@@H](CCC(=O)O)C(=O)N[C@H](C(=O)NCC(=O)N[C@@H](CO)C(=O)N[C@@H](CO)C(=O)N[C@H](C(=O)N1C[C@H](O)C[C@H]1C(N)=O)[C@@H](C)O)C(C)C)[C@@H](C)O)N(C)C(=O)[C@H](C)NC(=O)CN(C)C(=O)[C@H](Cc1ccccc1)NC(=O)[C@H](CO)NC(=O)[C@H](CO)NC(=O)[C@H](CCCNC(=N)N)NC(=O)[C@H](CC(N)=O)NC(=O)[C@H](CC(C)C)NC(=O)[C@H](Cc1ccccc1)NC(=O)[C@H](Cc1c[nH]cn1)NC(=O)[C@H](C)NC(=O)[C@H](CC(C)C)NC(=O)[C@H](CCCNC(=N)N)NC(=O)[C@H](CCC(=O)O)NC(=O)[C@@H](NC(=O)[C@H](C)NC(=O)[C@@H]1CSSC[C@H](NC(=O)[C@H](CCCNC(=N)N)NC(=O)CC[C@H](NC(=O)CCCCCCCCCCCCCCCCCCC(=O)O)C(=O)O)C(=O)NCC(=O)N[C@@H]([C@@H](C)O)C(=O)N[C@@H](C)C(=O)N[C@@H]([C@@H](C)O)C(=O)N1)[C@@H](C)O
B5: [19CD]-isoGlu-R-C( )-GTAT-C( )-ATERLAHFLVRSSF-Gly(Me)-A-Ile(Me)-LSSTEVGSST-Hyp-NH2 (Compd. 31) (peptide)
peptide: {C20 diacid-γGlu}-RCGTATCATERLAHFLVRSSF[Sar]A[NMeI]LSSTEVGSST[Hyp]-NH2
modifications: disulfide 2-7
SMILES: CC[C@H](C)[C@@H](C(=O)N[C@@H](CC(C)C)C(=O)N[C@@H](CO)C(=O)N[C@@H](CO)C(=O)N[C@H](C(=O)N[C@@H](CCC(=O)O)C(=O)N[C@H](C(=O)NCC(=O)N[C@@H](CO)C(=O)N[C@@H](CO)C(=O)N[C@H](C(=O)N1C[C@H](O)C[C@H]1C(N)=O)[C@@H](C)O)C(C)C)[C@@H](C)O)N(C)C(=O)[C@H](C)NC(=O)CN(C)C(=O)[C@H](Cc1ccccc1)NC(=O)[C@H](CO)NC(=O)[C@H](CO)NC(=O)[C@H](CCCNC(=N)N)NC(=O)[C@@H](NC(=O)[C@H](CC(C)C)NC(=O)[C@H](Cc1ccccc1)NC(=O)[C@H](Cc1c[nH]cn1)NC(=O)[C@H](C)NC(=O)[C@H](CC(C)C)NC(=O)[C@H](CCCNC(=N)N)NC(=O)[C@H](CCC(=O)O)NC(=O)[C@@H](NC(=O)[C@H](C)NC(=O)[C@@H]1CSSC[C@H](NC(=O)[C@H](CCCNC(=N)N)NC(=O)CC[C@H](NC(=O)CCCCCCCCCCCCCCCCCCC(=O)O)C(=O)O)C(=O)NCC(=O)N[C@@H]([C@@H](C)O)C(=O)N[C@@H](C)C(=O)N[C@@H]([C@@H](C)O)C(=O)N1)[C@@H](C)O)C(C)C
B6: [19CD]-isoGlu-R-C( )-GTAT-C( )-ATERLAHFLHRSSF-Gly(Me)-A-Ile(Me)-LSSTEVGSST-Hyp-NH2 (Compd. 30) (peptide)
peptide: {C20 diacid}-[γGlu]RCGTATCATERLAHFLHRSSF[Sar]A[NMeI]LSSTEVGSST[Hyp]-NH2
modifications: disulfide 3-8
SMILES: CC[C@H](C)[C@@H](C(=O)N[C@@H](CC(C)C)C(=O)N[C@@H](CO)C(=O)N[C@@H](CO)C(=O)N[C@H](C(=O)N[C@@H](CCC(=O)O)C(=O)N[C@H](C(=O)NCC(=O)N[C@@H](CO)C(=O)N[C@@H](CO)C(=O)N[C@H](C(=O)N1C[C@H](O)C[C@H]1C(N)=O)[C@@H](C)O)C(C)C)[C@@H](C)O)N(C)C(=O)[C@H](C)NC(=O)CN(C)C(=O)[C@H](Cc1ccccc1)NC(=O)[C@H](CO)NC(=O)[C@H](CO)NC(=O)[C@H](CCCNC(=N)N)NC(=O)[C@H](Cc1c[nH]cn1)NC(=O)[C@H](CC(C)C)NC(=O)[C@H](Cc1ccccc1)NC(=O)[C@H](Cc1c[nH]cn1)NC(=O)[C@H](C)NC(=O)[C@H](CC(C)C)NC(=O)[C@H](CCCNC(=N)N)NC(=O)[C@H](CCC(=O)O)NC(=O)[C@@H](NC(=O)[C@H](C)NC(=O)[C@@H]1CSSC[C@H](NC(=O)[C@H](CCCNC(=N)N)NC(=O)CC[C@H](NC(=O)CCCCCCCCCCCCCCCCCCC(=O)O)C(=O)O)C(=O)NCC(=O)N[C@@H]([C@@H](C)O)C(=O)N[C@@H](C)C(=O)N[C@@H]([C@@H](C)O)C(=O)N1)[C@@H](C)O

Target: T1, human amylin receptor 3 (hAMYR3), hCTR2 …
Test: cell-based or functional assay

| Binder | hAMYR3 EC50 (nM); cAMP induction |
| --- | --- |
| B1 | 0.13 nM |
| B2 | 0.15 nM |
| B3 | 0.23 nM |
| B4 | 0.12 nM |
| B5 | 0.29 nM |
| B6 | 0.12 nM |
| {C20 diacid}-[γGlu]RCNTATCATQRLANFLHRSSF[Sar]A[NMeI]LSSTEVGSETP-NH2 (disulfide 3-8) [[19CD]-isoGlu-R-C( )-NTAT-C( )-ATQRLANFLHRSSF-Gly(Me)-A-Ile(Me)-LSSTEVGSETP-NH2 (Compd. 3)] | 0.2 nM |
